Experimental data: patent publication US20240132589A1 (ONCORESPONSE, published 2024)
Blank lines part the entries; values can stand above or below the binder they belong to.

Experiments:
[1] = biological target: T1, Human LILRA1 on transiently transfected HEK293-6E cells (human, UniProt O75019 17-489); test: flow cytometry, transiently transfected HEK293-6E cells
T1 construct: whole, on cells; also called hLILRA1

[2] = biological target: T2, Human LILRA2 on transiently transfected HEK293-6E cells (human, UniProt Q8N149 24-483); test: as above
T2 construct: whole, on cells; also called hLILRA2
T2 sequence (Q8N149 24-483): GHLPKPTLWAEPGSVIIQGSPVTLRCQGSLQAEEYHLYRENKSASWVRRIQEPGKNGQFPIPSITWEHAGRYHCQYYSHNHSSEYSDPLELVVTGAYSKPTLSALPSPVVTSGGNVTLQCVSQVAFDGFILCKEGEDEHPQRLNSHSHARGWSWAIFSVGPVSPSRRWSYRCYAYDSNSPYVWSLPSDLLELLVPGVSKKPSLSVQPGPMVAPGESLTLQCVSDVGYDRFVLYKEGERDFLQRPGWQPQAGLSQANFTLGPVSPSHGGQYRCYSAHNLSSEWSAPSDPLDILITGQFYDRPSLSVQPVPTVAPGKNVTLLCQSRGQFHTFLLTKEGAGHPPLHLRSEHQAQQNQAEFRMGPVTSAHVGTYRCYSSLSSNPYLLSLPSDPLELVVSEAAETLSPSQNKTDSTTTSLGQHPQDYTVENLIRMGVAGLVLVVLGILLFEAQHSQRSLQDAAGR

[3] = biological target: T3, Human LILRA4 on transiently transfected HEK293-6E cells (human, UniProt P59901 24-499); test: as above
T3 construct: whole, on cells; also called hLILRA4
T3 sequence (P59901 24-499): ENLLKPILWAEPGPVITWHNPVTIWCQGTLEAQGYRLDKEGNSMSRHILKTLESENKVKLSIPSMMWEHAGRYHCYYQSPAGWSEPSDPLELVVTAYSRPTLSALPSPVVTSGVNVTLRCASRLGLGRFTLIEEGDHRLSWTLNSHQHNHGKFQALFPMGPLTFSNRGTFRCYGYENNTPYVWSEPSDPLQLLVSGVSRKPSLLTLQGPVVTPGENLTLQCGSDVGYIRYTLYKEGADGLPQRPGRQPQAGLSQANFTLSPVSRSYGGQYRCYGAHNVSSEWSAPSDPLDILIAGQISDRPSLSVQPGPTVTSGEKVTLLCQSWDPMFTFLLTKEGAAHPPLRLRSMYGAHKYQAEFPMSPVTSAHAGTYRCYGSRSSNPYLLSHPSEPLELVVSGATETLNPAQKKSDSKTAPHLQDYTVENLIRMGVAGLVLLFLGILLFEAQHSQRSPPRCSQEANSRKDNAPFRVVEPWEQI

[4] = biological target: T4, Human LILRA5 on transiently transfected HEK293-6E cells (human, UniProt A6NI73 42-299); test: as above
T4 construct: whole, on cells; also called hLILRA5
T4 sequence (A6NI73 42-299): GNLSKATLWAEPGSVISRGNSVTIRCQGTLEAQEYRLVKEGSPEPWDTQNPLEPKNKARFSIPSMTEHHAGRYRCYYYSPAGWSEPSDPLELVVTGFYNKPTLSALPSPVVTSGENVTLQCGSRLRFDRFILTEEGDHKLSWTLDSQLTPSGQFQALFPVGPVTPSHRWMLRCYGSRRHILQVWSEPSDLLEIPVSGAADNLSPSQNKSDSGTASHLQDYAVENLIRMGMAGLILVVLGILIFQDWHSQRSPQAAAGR

[5] = biological target: T5, Human LILRA6 on transiently transfected HEK293-6E cells (human, UniProt Q6PI73 24-481); test: as above
T5 construct: whole, on cells; also called hLILRA6
T5 sequence (Q6PI73 24-481): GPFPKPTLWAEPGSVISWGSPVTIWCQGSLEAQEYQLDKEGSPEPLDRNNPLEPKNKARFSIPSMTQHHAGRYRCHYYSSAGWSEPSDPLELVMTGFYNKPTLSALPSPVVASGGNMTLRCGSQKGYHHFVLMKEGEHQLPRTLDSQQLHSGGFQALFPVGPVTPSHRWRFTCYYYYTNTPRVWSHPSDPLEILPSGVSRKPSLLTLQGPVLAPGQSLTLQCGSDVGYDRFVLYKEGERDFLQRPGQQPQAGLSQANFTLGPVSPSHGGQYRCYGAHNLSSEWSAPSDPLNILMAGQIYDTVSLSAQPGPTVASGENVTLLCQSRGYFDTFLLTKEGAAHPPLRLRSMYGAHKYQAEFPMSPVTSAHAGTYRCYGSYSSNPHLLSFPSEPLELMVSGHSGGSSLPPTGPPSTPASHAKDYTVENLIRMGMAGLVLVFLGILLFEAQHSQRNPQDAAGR

[6] = biological target: T6, Human LILRB1 on transiently transfected HEK293-6E cells (human, UniProt Q8NHL6 24-650); test: as above
T6 construct: whole, on cells; also called hLILRB1
T6 sequence (Q8NHL6 24-650): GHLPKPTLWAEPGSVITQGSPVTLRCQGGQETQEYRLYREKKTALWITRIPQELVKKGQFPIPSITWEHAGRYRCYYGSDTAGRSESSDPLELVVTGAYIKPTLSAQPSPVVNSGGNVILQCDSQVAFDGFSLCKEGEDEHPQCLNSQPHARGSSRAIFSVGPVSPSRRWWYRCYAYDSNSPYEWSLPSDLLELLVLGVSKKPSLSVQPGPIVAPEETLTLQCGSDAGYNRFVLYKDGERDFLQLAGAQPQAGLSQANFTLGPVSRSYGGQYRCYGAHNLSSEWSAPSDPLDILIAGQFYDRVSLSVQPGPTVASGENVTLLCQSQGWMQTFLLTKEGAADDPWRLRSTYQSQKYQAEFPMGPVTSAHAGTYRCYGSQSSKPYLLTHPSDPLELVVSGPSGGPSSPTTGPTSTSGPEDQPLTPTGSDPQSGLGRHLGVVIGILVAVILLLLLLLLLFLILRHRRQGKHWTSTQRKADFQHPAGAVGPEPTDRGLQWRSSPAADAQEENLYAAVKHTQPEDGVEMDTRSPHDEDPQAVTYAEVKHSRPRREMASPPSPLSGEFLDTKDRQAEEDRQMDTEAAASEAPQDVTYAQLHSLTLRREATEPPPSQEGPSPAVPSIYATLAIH

[7] = biological target: T7, Human LILRB3 on transiently transfected HEK293-6E cells (human, UniProt O75022 24-631); test: as above
T7 construct: whole, on cells; also called hLILRB3

[8] = biological target: T8, Human LILRB4 on transiently transfected HEK293-6E cells (human, UniProt Q8NHJ6 22-448); test: as above
T8 construct: whole, on cells; also called hLILRB4

[9] = biological target: T9, Human LILRB5 on transiently transfected HEK293-6E cells (human, UniProt O75023 24-590); test: as above
T9 construct: whole, on cells; also called hLILRB5
T9 sequence (O75023 24-590): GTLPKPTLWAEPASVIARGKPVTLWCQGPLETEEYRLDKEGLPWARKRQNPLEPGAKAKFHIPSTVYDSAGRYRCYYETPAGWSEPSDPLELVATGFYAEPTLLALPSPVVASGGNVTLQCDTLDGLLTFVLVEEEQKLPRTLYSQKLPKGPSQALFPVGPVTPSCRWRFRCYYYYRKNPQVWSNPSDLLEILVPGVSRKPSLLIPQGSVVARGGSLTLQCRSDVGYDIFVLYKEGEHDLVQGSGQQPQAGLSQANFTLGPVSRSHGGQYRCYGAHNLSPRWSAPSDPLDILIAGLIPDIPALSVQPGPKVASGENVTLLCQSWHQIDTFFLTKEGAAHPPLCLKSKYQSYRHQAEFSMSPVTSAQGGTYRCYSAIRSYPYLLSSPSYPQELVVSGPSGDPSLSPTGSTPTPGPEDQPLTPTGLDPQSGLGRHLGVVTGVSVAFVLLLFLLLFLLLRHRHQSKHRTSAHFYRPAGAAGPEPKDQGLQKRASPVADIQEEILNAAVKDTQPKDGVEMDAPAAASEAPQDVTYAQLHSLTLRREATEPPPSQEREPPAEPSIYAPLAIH

[10] = biological target: T10, Human LILRB2 on transiently transfected HEK293-6E cells (human, UniProt Q8N423 22-597); test: as above
T10 construct: whole, on cells; also called hLILRB2
T10 sequence (Q8N423 22-597): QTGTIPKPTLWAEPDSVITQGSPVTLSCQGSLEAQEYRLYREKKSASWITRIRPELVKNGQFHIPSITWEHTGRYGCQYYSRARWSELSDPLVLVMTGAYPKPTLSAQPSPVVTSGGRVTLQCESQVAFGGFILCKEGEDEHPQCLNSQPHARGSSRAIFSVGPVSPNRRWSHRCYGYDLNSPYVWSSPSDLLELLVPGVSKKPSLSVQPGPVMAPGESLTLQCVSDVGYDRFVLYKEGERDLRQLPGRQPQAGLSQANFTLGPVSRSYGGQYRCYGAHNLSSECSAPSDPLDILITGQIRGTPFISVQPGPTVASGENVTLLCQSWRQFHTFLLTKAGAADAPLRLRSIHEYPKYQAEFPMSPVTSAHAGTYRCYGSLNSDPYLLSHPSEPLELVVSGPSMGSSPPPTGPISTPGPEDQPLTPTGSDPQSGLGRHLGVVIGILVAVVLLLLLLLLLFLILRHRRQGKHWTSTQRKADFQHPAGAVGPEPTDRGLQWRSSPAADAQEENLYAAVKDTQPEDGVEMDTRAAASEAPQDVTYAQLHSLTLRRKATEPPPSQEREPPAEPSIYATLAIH
Protocol: (§1) To determine that the anti-LILRB2 antibodies specifically bind to LILRB2 and not other LILRB and LILRA family members, a cross-reactivity assay was performed. Cross-reactivity of the LILRB2 antibodies to other LILRB proteins was assessed by antibody binding to transiently transfected HEK293-6E cells, measured by flow cytometry. Binding was evaluated to HEK293-6E cells transiently transfected with human LILRB-1, -2, -3, -4, and 5 plasmids (Origene, Nos. RC219949, RC217935, RC211228, RC220932, RC206516) or to cells transiently transfected with human LILRA-1, -2, -4, -5, and -6 plasmids (Origene, Nos. RC210808, RC205626, RC220452, RC212310 RC212965). […] Murine primary antibodies to LILRA and LILRB targets and corresponding isotype controls were used to confirm specific binding of all targets tested (R&D Systems) while an AF647 F(ab′)₂ fragment goat anti-mouse antibody (Jackson ImmunoResearch, No. 115-606-062) was used for the detection of bound positive control antibodies. No binding of B2A-IgG4 or B2A-IgG1 to LILRB-1, -3, -4, or -5 was observed, and no binding of either antibody to LILRA-1, -2, -4, -5, or -6 was observed, confirming specificity of these antibodies.

[11] = biological target: T1, Human LILRA1 on transiently transfected …; test: as above; remark: listed apart in the source
Protocol: as §1

[12] = biological target: T2, Human LILRA2 on transiently transfected …; test: as above; remark: listed apart in the source
Protocol: as §1

[13] = biological target: T3, Human LILRA4 on transiently transfected …; test: as above; remark: listed apart in the source
Protocol: as §1

[14] = biological target: T4, Human LILRA5 on transiently transfected …; test: as above; remark: listed apart in the source
Protocol: as §1

[15] = biological target: T5, Human LILRA6 on transiently transfected …; test: as above; remark: listed apart in the source
Protocol: as §1

[16] = biological target: T7, Human LILRB3 on transiently transfected …; test: as above; remark: listed apart in the source
Protocol: as §1

[17] = biological target: T8, Human LILRB4 on transiently transfected …; test: as above; remark: listed apart in the source
Protocol: as §1

[18] = biological target: T9, Human LILRB5 on transiently transfected …; test: as above; remark: listed apart in the source
Protocol: as §1

[19] = biological target: T2, Human LILRA2 on transiently transfected …; test: as above; remark: listed apart in the source
Protocol: as §1
Select humanized variant antibodies were tested for their ability to bind other LILRB or LILRA family members, using the method and commercially available positive control antibodies of Example 5.

[20] = biological target: T11, Human LILRB2 on stably transduced HEK293T cells (human, UniProt Q8N423 22-597); test: flow cytometry, HEK293T cells stably expressing human LILRB2
T11 construct: Lentiviral transduction (G&P Biosciences LTV2992); also called HEK293T-LILRB2; LILRB2-expressing HEK293T cells
T11 sequence (Q8N423 other isoform, or with tags, fused parts or gaps limits assumed): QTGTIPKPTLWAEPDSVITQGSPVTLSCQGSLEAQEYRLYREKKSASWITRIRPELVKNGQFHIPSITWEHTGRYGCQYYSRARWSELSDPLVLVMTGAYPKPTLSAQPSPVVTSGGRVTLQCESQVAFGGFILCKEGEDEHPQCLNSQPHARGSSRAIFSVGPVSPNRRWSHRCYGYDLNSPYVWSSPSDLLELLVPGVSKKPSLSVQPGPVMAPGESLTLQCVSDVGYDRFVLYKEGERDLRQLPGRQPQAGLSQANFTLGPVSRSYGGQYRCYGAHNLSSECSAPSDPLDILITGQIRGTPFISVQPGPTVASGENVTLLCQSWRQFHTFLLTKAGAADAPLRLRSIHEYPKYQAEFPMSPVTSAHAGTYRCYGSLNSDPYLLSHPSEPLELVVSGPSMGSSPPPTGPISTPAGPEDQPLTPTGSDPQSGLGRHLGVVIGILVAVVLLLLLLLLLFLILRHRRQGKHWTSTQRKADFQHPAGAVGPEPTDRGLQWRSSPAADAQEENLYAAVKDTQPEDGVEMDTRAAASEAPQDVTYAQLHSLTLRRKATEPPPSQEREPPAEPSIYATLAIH
Protocol: To confirm binding of LILRB2 antibodies, flow cytometry binding assays were performed using HEK293T cells stably expressing human LILRB2 (Example 3). […] The B2A-IgG1 and B2A-IgG4 chimeras bound the LILRB2-expressing HEK293T cells, with equivalent EC₅₀ values of 0.21 nM and 0.30 nM respectively.

T1 sequence (O75019 17-489): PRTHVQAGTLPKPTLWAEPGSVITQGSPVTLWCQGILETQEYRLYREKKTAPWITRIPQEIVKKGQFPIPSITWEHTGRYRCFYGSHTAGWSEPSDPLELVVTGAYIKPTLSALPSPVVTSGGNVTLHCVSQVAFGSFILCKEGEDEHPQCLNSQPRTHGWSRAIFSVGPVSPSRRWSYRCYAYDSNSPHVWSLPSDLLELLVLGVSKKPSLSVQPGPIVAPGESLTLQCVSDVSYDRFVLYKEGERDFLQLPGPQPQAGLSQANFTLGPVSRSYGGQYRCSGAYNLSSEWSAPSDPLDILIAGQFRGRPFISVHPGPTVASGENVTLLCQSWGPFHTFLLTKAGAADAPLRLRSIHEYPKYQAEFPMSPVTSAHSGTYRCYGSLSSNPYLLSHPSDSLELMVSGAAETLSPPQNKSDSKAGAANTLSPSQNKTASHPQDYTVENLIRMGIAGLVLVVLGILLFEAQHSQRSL

binding result [1]: no binding | binding result [2]: no binding | binding result [3]: no binding | binding result [4]: no binding | binding result [5]: no binding | binding result [6]: no binding | binding result [7]: no binding | binding result [8]: no binding | binding result [9]: no binding | MFI [10]: 11300 MFI | MFI [11]: 898 MFI | MFI [12]: 38 MFI | MFI [13]: 116 MFI | MFI [14]: 127 MFI | MFI [15]: 223 MFI | MFI [16]: 163 MFI | MFI [17]: 40 MFI | MFI [18]: 147 MFI | Bmax (MFI) [19]: 40.4 MFI | EC50 [20]: 0.21 nM
B1: B2A-IgG1 (antibody)
heavy: not shown
light: DVVMTQTPSSVSAALGGTVTIKCQASQSIGSNLAWYQLKPGQRPKLLIYAAATLASGGSSRFKGSGSGTDFTLTISDLECADAATYYCQSYVSGSSDVAFGGGTEVVVKRTVAAPSVFIFPPSDEQLKSGTASVVCLLNNFYPREAKVQWKVDNALQSGNSQESVTEQDSKDSTYSLSSTLTLSKADYEKHKVYACEVTHQGLSSPVTKSFNRGEC
notes: Rabbit variable regions on human IgG1 / kappa constant regions; AF647-conjugated in some flow assays; also called B2A-IgG1 chimera; anti-LILRB2 B2A-IgG1

binding result [1]: no binding | binding result [2]: no binding | binding result [3]: no binding | binding result [4]: no binding | binding result [5]: no binding | binding result [6]: no binding | binding result [7]: no binding | binding result [8]: no binding | binding result [9]: no binding | MFI [10]: 1160 MFI | MFI [11]: 73 MFI | MFI [12]: 31 MFI | MFI [13]: 30 MFI | MFI [14]: 21 MFI | MFI [15]: 22 MFI | MFI [16]: 22 MFI | MFI [17]: 20 MFI | MFI [18]: 21 MFI | EC50 [20]: 0.3 nM
B2: B2A-IgG4 (antibody)
heavy: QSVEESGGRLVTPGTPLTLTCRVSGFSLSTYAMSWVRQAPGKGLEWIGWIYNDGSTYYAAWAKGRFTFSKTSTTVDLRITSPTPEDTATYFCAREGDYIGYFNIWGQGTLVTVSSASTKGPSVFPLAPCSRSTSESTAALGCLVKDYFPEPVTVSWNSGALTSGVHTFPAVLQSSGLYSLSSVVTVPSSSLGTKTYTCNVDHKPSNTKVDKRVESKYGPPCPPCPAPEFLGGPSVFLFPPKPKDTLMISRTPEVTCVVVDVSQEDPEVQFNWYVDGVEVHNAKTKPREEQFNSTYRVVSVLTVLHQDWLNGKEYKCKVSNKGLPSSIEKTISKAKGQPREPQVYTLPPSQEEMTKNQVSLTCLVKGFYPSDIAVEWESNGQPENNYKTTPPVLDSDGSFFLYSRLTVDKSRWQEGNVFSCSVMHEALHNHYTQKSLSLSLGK
light: B1 light
notes: Rabbit variable regions on human IgG4 / kappa constant regions; also called B2A-IgG4 chimera; Parent B2A-IgG4

binding result [1]: no binding | binding result [2]: no binding | binding result [3]: no binding | binding result [4]: no binding | binding result [5]: no binding | binding result [6]: no binding | binding result [7]: no binding | binding result [8]: no binding | binding result [9]: no binding | Bmax (MFI) [19]: 37.7 MFI
B3: B2H1-55 (antibody, V domains shown)
VH: EVQLLESGGGLVQPGTSLTLSCAASGFSLSTYAMSWVRQAPGKGLEWIGWIYNDGSTYYAAWAKGRFTISKDTSKTTLYLQITSLRAEDTATYFCAREGDYIGYFNIWGQGTLVTVSS
VL: DVVMTQTPSSVSAALGGTVTIKCQASQSIGSNLAWYQLKPGQRPKLLIYAAATLASGGSSRFKGSGSGTDFTLTISSLEPADAATYYCQSYVSGSSDVAFGGGTEVVVK
notes: Humanized variant, human IgG1 / kappa; also called humanized variant B2H1-55; humanized LILRB2 antibody B2H1-55
